From IntAct's records for PubMed 21295698

What was measured:
ogt1_human OGT [1] = biological target: ogt1_human OGT (UniProt O15294)
ogt1_human OGT [2] = biological target: ogt1_human OGT (UniProt O15294); remark: listed apart in the source

UniProt O15294, sequence (O15294 whole entry): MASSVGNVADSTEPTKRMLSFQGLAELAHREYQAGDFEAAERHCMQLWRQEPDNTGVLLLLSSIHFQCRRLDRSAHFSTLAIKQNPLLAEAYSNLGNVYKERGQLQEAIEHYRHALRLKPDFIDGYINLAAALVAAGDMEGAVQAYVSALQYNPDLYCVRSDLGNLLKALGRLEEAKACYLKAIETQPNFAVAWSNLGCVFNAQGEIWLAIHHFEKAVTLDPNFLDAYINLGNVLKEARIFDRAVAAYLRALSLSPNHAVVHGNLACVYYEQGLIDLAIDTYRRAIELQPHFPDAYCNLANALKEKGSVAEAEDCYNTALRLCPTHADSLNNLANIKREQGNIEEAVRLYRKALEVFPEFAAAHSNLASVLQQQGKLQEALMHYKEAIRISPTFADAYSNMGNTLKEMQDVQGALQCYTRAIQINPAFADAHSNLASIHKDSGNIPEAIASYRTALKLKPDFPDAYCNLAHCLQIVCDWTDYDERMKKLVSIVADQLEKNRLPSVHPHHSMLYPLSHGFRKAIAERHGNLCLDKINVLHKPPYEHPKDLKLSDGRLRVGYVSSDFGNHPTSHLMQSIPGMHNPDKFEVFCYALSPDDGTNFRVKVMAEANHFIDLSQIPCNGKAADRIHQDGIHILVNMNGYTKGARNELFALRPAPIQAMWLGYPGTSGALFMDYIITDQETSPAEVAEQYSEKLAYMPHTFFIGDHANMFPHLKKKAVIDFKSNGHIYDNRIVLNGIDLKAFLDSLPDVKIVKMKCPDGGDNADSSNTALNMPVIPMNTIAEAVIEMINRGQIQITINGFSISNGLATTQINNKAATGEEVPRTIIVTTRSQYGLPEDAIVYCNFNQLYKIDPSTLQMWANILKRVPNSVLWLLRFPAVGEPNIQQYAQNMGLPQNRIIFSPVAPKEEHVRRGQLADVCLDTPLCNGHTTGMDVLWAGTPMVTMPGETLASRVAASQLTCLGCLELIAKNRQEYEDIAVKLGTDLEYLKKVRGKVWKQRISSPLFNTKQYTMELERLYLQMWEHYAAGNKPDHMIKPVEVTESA

Host cell factor 1 (Homo sapiens), P51610 E1081A
effect of a mutation on the interaction (ogt1_human OGT [1]): increasing interaction | effect of a mutation on the interaction (ogt1_human OGT [2]): disrupting interaction

Host cell factor 1 (Homo sapiens), P51610 P1079A
effect of a mutation on the interaction (ogt1_human OGT [2]): decreasing interaction

Host cell factor 1 (Homo sapiens), P51610 T1092A
effect of a mutation on the interaction (ogt1_human OGT [2]): disrupting interaction

Host cell factor 1 (Homo sapiens), P51610 C1080A
effect of a mutation on the interaction (ogt1_human OGT [2]): decreasing interaction

Host cell factor 1 (Homo sapiens), P51610 T1082A
effect of a mutation on the interaction (ogt1_human OGT [2]): decreasing interaction

Host cell factor 1 (Homo sapiens), P51610 T1085A
effect of a mutation on the interaction (ogt1_human OGT [2]): decreasing interaction

Host cell factor 1 (Homo sapiens), P51610 H1083A
effect of a mutation on the interaction (ogt1_human OGT [2]): decreasing interaction

Host cell factor 1 (Homo sapiens), P51610 T1087A
effect of a mutation on the interaction (ogt1_human OGT [2]): disrupting interaction

Host cell factor 1 (Homo sapiens), P51610 T1088A
effect of a mutation on the interaction (ogt1_human OGT [2]): disrupting interaction

Host cell factor 1 (Homo sapiens), P51610 P1078A
effect of a mutation on the interaction (ogt1_human OGT [2]): decreasing interaction

Host cell factor 1 (Homo sapiens), P51610 N1077A
effect of a mutation on the interaction (ogt1_human OGT [2]): decreasing interaction

Host cell factor 1 (Homo sapiens), P51610 T1090A
effect of a mutation on the interaction (ogt1_human OGT [2]): disrupting interaction

Host cell factor 1 (Homo sapiens), P51610 C1075A
effect of a mutation on the interaction (ogt1_human OGT [2]): decreasing interaction
